B1: Homolog_E7: RecE, Providencia alcalifaciens DSM 30120; SEQ ID NO: 144 (protein, listed as Providencia alcalifaciens)
chain: MNEGIYYDISNEDYHHGLGISKSQLDLIDESPADFIWHRDAPVDNEKTKALDFGTALHCLLLEPDEFQKRFRIAPEVNRRTNAGKEQEKEFLEMCEKENITPITNEDNRKLSLMKDSAMAHPIARWCLEAKGIAESSIYWKDKDTDILCRCRPDKLIEEHHWLVDVKSTADIQKFERSMYEYRYHVQDSFYSDGYKSLTGEMPVFVFLAVSTVINCGRYPVRVFVLDEQAKSVGRITYKQNLFTYAECLKTDEWAGIRTLSLPSWAKELKHEHTTAS
B2: Homolog_E6: RecE, Providencia sp. MGF014; SEQ ID NO: 126 (protein, listed as Providencia sp.)
chain: MKEGIYYNISNEDYHNGLGISKSQLDLINEMPAEYIWSKEAPVDEEKIKPLEIGTALHCLLLEPDEYHKRYKIGPDVNRRTNVGKEKEKEFFDMCEKEGITPITHDDNRKLMIMRDSALAHPIAKWCLEADGVSESSIYWTDKETDVLCRCRPDRIITAHNYIIDVKSSGDIEKFDYEYYNYRYHVQDAFYSDGYKEVTGITPTFLFLVVSTKIDCGKYPVRTYVMSEEAKSAGRTAYKHNLLTYAECLKTDEWAGIRTLSLPRWAKELRNE
B3: Homolog_T7: RecT, Providencia alcalifaciens DSM 30120; SEQ ID NO: 143 (protein, listed as Providencia alcalifaciens)
chain: MKAQLAAALPKHITSDRMIRIVSTEIRKTPSLANCDIQSFIGAVVQCSQLGLEPGNALGHAYLLPFGNGKSDNGKSNVQLIIGYRGMIDLARRSGQIISISARTVRQGDNFHFEYGLNENLTHIPEGNEDSPITHVYAVARLKDEGVQFEVMTYNQIEKVRDSSKAGKNGPWVTHWEEMAKKTVIRRLFKYLPVSIEMQKAVILDEKAEANIEQDHSAIFEAEFEEVDSNGN
B4: Homolog_E9: RecE, Bacillus sp. MUM 116; SEQ ID NO: 130 (protein, listed as Bacillus sp.)
chain: MTYAADETLVQLLLSVDGKQLLLGRGLKKGKAQYYINEVPSKAKEFEEIRDQLFDKDLFMSLFNPSYFFTLHWEKQRAMMLKYVTAPVSKEVLKNLPEAQSEVLERYLKKHSLVDLEKIHKDNKNKQDKAYISAQSRTNTLKEQLMQLTEEKLDIDSIKAELAHIDMQVIELEKQMDTAFEKNQAFNLQAQIRNLQDKIEMSKERWPSLKNEVIEDTCRTCKRPLDEDSVEAVKADKDNRIAEYKAKHNSLVSQRNELKEQLNTIEYIDVTELREQIKELDESGQPLREQVRIYSQYQNLDTQVKSAEADENGILQDLKASIFILDSIKAFRGKEAEMQAEKVQALFTTLSVRLFKQNKGDGEIKPDFEIEMNDKPYRTLSLSEGIRAGLELRDVLSQQSELVTPTFVDNAESITSFKQPNGQLIISRVVAGQELKIEAVSE
B5: Homolog_T10: RecT, Shigella sonnei; SEQ ID NO: 131 (protein, listed as Shigella sonnei)
chain: MTKQPPIAKADLQKTQENRAPAAIKNNDVISFINQPSMKEQLAAALPRHMTAERMIRIATTEIRKVPALGNCDTMSFVSAIVQCSQLGLEPGSALGHAYLLPFGNKNEKSGKKNVQLIIGYRGMIDLARRSGQIASLSARVVREGDEFNFEFGLDEKLIHRPGENEDAPVTHVYAVARLKDGGTQFEVMTRRQIELVRSQSKAGNNGPWVTHWEEMAKKTAIRRLFKYLPVSIEIQRAVSMDEKEPLTIDPADSSVLTGEYSVIDNSEE
B6: Homolog_E10: RecE, Shigella sonnei; SEQ ID NO: 132 (protein, listed as Shigella sonnei)
chain: DRGLLTKEWRKGNRVSRITRTASGANAGGGNLTDRGEGFVHDLTSLARDIATGVLARSMDVDIYNLHPAHAKRIEEIIAENKPPFSVFRDKFITMPGGLDYSRAIVVASVKEAPIGIEVIPAHVTAYLNKVLTETDHANPDPEIVDIACGRSSAPMPQRVTEEGKQDDEEKLQPSGTTADEQGEAETMEPDATKHHQDTQPLDAQSQVNSVDAKYQELRAELHEARKNIPSKNPVDADKLLAASRGEFVDGISDPNDPKWVKGIQTRDSVYQNQPETEKTSPDMKQPEPVVQQEPEIAFNACGQTGGDNCPDCGAVMGDATYQETFDEENQVEAKENDPEEMEGAEHPHNENAGSDPHRDCSDETGEVADPVIVEDIEPGIYYGISNENYHAGPGVSKSQLDDIADTPALYLWRKNAPVDTTKTKTLDLGTAFHCRVLEPEEFSNRFIVAPEFNRRTNAGKEEEKAFLMECASTGKMVITAEEGRKIELMYQSVMALPLGQWLVESAGHAESSIYWEDPETGILCRCRPDKIIPEFHWIMDVKTTADIQRFKTAYYDYRYHVQDAFYSDGYEAQFGVQPTFVFLVASTTIECGRYPVEIFMMGEEAKLAGQLEYHRNLRTLADCLNTDEWPAIKTLSLPRWAKEYAND
B7: Homolog_T6: RecT, Providencia sp. MGF014; SEQ ID NO: 125 (protein, listed as Providencia sp.)
chain: MSNPPLAQSDLQKTQGTEVKVKTKDQQLIQFINQPSMKAQLAAALPRHMTPDRMIRIVTTEIRKTPALATCDMQSFVGAVVQCSQLGLEPGNALGHAYLLPFGNGKAKSGQSNVQLIIGYRGMIDLARRSNQIISISARTVRQGDNFHFEYGLNEDLTHTPSENEDSPITHVYAVARLKDGGVQFEVMTYNQVEKVRASSKAGQNGPWVSHWEEMAKKTVIRRLFKYLPVSIEMQKAVVLDEKAEANVDQENATIFEGEYEEVGTDGN
B8: Homolog_T9: RecT, Bacillus sp. MUM 116; SEQ ID NO: 129 (protein, listed as Bacillus sp.)
chain: MSKQLTTVNTQAVVGTFSQAELDTLKQTIAKGTTNEQFALFVQTCANSRLNPFLNHIHCIVYNGKEGATMSLQIAVEGILYLARKTDGYKGIECQLIHENDEFKFDAKSKEVDHQIGFPRGNVIGGYAIAKREGFDDVVVLMESNEVDHMLKGRNGHMWRDWFNDMFKKHIMKRAAKLQYGIEIAEDETVSSGPSVDNIPEYKPQPRKDITPNQDVIDAPPQQPKQDDEAAKLKAARSEVSKKFKKLGIVKEDQTEYVEKHVPGFKGTLSDFIGLSQLLDLNIEAQEAQSADGDLLD
B9: Homolog_T8: RecT, Shewanella putrefaciens; SEQ ID NO: 127 (protein, listed as Shewanella putrefaciens)
chain: MQTAQVKLSVPHQQVYQDNFNYLSSQVVGHLVDLNEEIGYLNQIVFNSLSTASPLDVAAPWSVYGLLLNVCRLGLSLNPEKKLAYVMPSWSETGEIIMKLYPGYRGEIAIASNFNVIKNANAVLVYENDHFRIQAATGEIEHFVTSLSIDPRVRGACSGGYCRSVLMDNTIQISYLSIEEMNAIAQNQIEANMGNTPWNSIWRTEMNRVALYRRAAKDWRQLIKATPEIQSALSDTEY
B10: Homolog_T11: RecT, Salmonella enterica; SEQ ID NO: 133 (protein, listed as Salmonella enterica)
chain: MTKQPPIAKADLQKTQGNRAPAAVNDKDVLCVINSPAMKAQLAAALPRHMTAERMIRIATTEIRKVPELRNCDSTSFIGAIVQCSQLGLEPGSALGHAYLLPFGNGKAKNGKKNVQLIIGYRGMIDLARRSGQIISLSARVVRECDEFSYELGLDEKLVHRPGENEDAPITHVYAVAKLKDGGVQFEVMTKKQVEKVRDTHSKAAKNAASKGASSIWDEHFEDMAKKTVIRKLFKYLPVSIEIQRAVSMDGKEVETINPDDISVIAGEYSVIDNPEE
B11: Homolog_E8: RecE, Shewanella putrefaciens; SEQ ID NO: 128 (protein, listed as Shewanella putrefaciens)
chain: MGTALAQTISLDWQDTIQPAYTASGKPNFLNAQGEIVEGIYTDLPNSVYHALDAHSSTGIKTFAKGRHHYFRQYLSDVCRQRTKQQEYTFDAGTYGHMLVLEPENFHGNFMRNPVPDDFPDIELIESIPQLKAALAKSNLPVSGAKAALIERLYAFDPSLPLFEKMREKAITDYLDLRYAKYLRTDVELDEMATFYGIDTSQTREKKIEEILAISPSQPIWEKLISQHVIDHIVWDDAMRVERSTRAHPKADWLISDGYAELTIIARCPTTGLLLKVRFDWLRNDAIGVDFKTTLSTNPTKFGYQIKDLRYDLQQVFYCYVANLAGIPVKHFCFVATEYKDADNCETFELSHKKVIESTEEMFDLLDEFKEALTSGNWYGHDRSRSTWVIEV

What was measured:
[1] = system: HSP90AA1 locus; assay: mKate knock-in gene-editing assay, RecE/RecT homologs, HSP90AA1 locus; type: cell-based, human; details: HEK293 cells, MCP fusion, n=3
Description: (§1) Transfection HEK293T cells were seeded into 96-well plates (Corning) 12-24 hours prior to transfection at a density of 30,000 cells/well, and 250 ng of total DNA was transfected per well. HeLa and HepG2 cells were seeded into 48-well plates (Corning) one day prior to transfection at a density of 50,000 and 30,000 cells/well respectively, and 400 ng of total DNA was transfected per well. Transfections were performed with Lipofectamine 3000 (Life Technologies) following the manufacturer's instructions.
(§2) Fluorescence-activated cell sorting (FACS) mKate knock-in efficiency was analyzed on a CytoFLEX flow cytometer (Beckman Coulter; Stanford Stem Cell FACS Core). 72 hours after transfection, cells were washed once with PBS and dissociated with TrypLE Express Enzyme (Thermo Fisher Scientific). Cell suspension was then transferred to a 96-well U-bottom plate (Thermo Fisher Scientific) and centrifuged at 300×G for 5 minutes. After removing the supernatant, pelleted cells were resuspended with 50 μl 4% FBS in PBS, and cells were sorted within 30 minutes of preparation.
(§3) 15 different species of microbes having RecE/RecT proteins were selected for a screen of various RecE and RecT proteins across the microbial kingdom (Table 3). Each protein was codon-optimized and synthesized. As previously described for E. coli RecE/RecT based REDIT systems, each protein was fused via E-XTEN linker to the MCP protein with additional nuclear localization signal. mKate knock-in gene-editing assay was used to measure efficiencies at DYNLT1 locus (FIG. 26A, Table 4) and HSP90AA1 locus (FIG. 26B, Table 4).

[2] = system: DYNLT1 locus; assay: mKate knock-in gene-editing assay, RecE/RecT homologs, DYNLT1 locus; type: cell-based, human; details: HEK293 cells, MCP fusion, n=3
Description: as §1, §2, §3

| Molecule | Mean mKate+ (%), HSP90AA1 [1] | Mean mKate+ (%), DYNLT1 [2] |
| --- | --- | --- |
| B1 | 5.7367% | 4.4733% |
| B2 | 5.9300% | 5.4100% |
| B3 | 5.3700% | 5.6467% |
| B4 | 5.6900% | 5.3233% |
| B5 | 5.5900% | 8.5333% |
| B6 | 3.5900% | 4.4000% |
| B7 | 6.2500% | 9.0533% |
| B8 | 6.2000% | 8.1300% |
| B9 | 5.7133% | 5.0400% |
| B10 | 4.9233% | 9.8467% |
| B11 | 7.0533% | 4.6567% |

— patent publication US20250034594A1, “RNA-GUIDED GENOME RECOMBINEERING AT KILOBASE SCALE” (THE BOARD OF TRUSTEES OF THE LELAND STANFORD JUNIOR …, priority 2021, published 2025)
